Data: PMC6122994 (The Journal of Cell Biology, 2018)

Molecular target: the molecule itself
Experiment: SEC

B1: MBP-Opi1 (full-length) (natural protein, S. cerevisiae, UniProt P21957 1-404, looked up)
chain: MSENQRLGLSEEEVEAAEVLGVLKQSCRQKSQPSEDVSQADKMPASESSTTPLNILDRVSNKIISNVVTFYDEINTNKRPLKSIGRLLDDDDDEHDDYDYNDDEFFTNKRQKLSRAIAKGKDNLKEYKLNMSIESKKRLVTCLHLLKLANKQLSDKISCLQDLVEKEQVHPLHKQDGNARTTTGAGEDETSSDEDDDDEEFFDASEQVNASEQSIVVKMEVVGTVKKVYSLISKFTANSLPEPARSQVRESLLNLPTNWFDSVHSTSLPHHASFHYANCEEQKVEQQQQQQQQQQQQQLLQQQLLQQQQQKRNKDGDDSASPSSSVTANGKVLILAKESLEMVRNVMGVVDSTLGKAEEWVKQKQEVKEMIRERFLQQQQQYRQQQQKDGNYVKPSQDNVDSKD
- binding result: binds
